Read-outs that look alike come from different tables or passages of the source.
Assays:
[1] = target: cynomolgus IL-23 (cynomolgus); test: cell-based or functional assay
[2] = target: recombinant human IL-23 (p19/p40) (human) (UniProt Q9NPF7); test: cell-based or functional assay
[3] = target: cynomolgus IL-23 (cynomolgus); test: cell-based or functional assay; remark: listed apart in the source
[4] = target: recombinant human IL-23 (p19/p40) (human) (UniProt Q9NPF7); test: cell-based or functional assay; remark: listed apart in the source
[5] = target: recombinant human IL-23 (p19/p40) (human) (UniProt Q9NPF7); test: inhibition ELISA, hIL-23/hIL-23R-Fc
[6] = target: native human IL-23 (supernatant of SAC-stimulated THP-1 cells) (human) (UniProt Q9NPF7); test: cell-based or functional assay
native human IL-23 (supernatant of SAC-stimulated THP-1 cells) (human), sequence (Q9NPF7 20-189, chain 1 of 2): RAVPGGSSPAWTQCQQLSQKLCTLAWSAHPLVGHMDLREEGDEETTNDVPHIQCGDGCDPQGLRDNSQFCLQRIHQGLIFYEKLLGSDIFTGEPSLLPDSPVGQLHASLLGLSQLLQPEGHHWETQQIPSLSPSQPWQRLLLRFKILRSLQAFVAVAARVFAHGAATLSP
native human IL-23 (supernatant of SAC-stimulated THP-1 cells) (human), sequence (P29460 23-328, chain 2 of 2, further chain): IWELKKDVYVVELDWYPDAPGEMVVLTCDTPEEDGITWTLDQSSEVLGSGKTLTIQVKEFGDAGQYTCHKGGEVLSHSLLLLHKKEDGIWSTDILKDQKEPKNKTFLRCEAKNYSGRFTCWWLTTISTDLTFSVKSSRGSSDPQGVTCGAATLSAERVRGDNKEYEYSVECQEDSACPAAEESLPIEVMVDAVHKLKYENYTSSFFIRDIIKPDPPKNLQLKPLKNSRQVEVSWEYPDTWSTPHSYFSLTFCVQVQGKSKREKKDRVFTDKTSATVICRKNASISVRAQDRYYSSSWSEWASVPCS

recombinant human IL-23 (p19/p40) (human), sequence (Q9NPF7 20-189 limits assumed, chain 1 of 2): as the sequence (Q9NPF7 20-189, chain 1 of 2) above
recombinant human IL-23 (p19/p40) (human), sequence (P29460 23-328 limits assumed, chain 2 of 2, further chain): as the sequence (P29460 23-328, chain 2 of 2, further chain) above

Binder | IC50, splenocyte assay, 3.8 pM cIL-23 [1] [pM] | IC50, splenocyte assay, 19 pM hIL-23 [2] [pM] | also measured
P23IL20B11-9GS-ALB1-9GS-37D5 (bispecific antibody, part only; not given: anti-albumin Nanobody, part only) chain, part: EVQLVESGGGLVQAGGSLRLSCAVSGDTFSVYGMGWFRQAPGMEREFVAGISWNAGITAYTDTLKGRFTISRDRAKNTMYLQMNSLQPEDTAVYYCAADVTRHYIATRSKVDASMYDYWGQGTQVTVSSGGGGSGGGSGGGGSGGGSEVQLVESGGGLVQPGGSLRLSCAASGFTLDYLAIGWFRQAPGKEREGVSCVSSSGQYTYYADSVKGRFTISRDNAESTVYLQMNSLKPEDTAVYYCATDPECYRVRGYYNGEYDYWGQGTQVTVSS | 8.59 | 4.47 | 
P23IL119A3-9GS-ALB1-9GS-81G2 (bispecific antibody, part only; not given: anti-albumin Nanobody, part only) chain, part: EVQLVESGGGLVQAGGSLRLSCAASGRIFSLPASGNIFNLLTIAWHRQAPGMQRELVATINSGSRTNYADSVKGRFTISRDNAQKTVYLQMNNLKPEDTAVYYCQTSGSGSPNFWGQGTQVTVSSGGGGSGGGSGGGGSGGGSEVQLVESGGGLVQPGGSLRLSCIASGLPFSTKSMGWFRQAPGKEREFVARISPGGTSRYYGDFVKGRFAISRDNAKNTTWLQMNSLKAEDTAVYYCASGERSTYIGSNYYRTNEYDYWGTGTQVTVSS | 3 | 4 | 
P23IL-121A2-9GS-ALB1-9GS-81G2 (bispecific antibody, part only; not given: anti-albumin Nanobody, part only) chain, part: EVQLVESGGGLVQAGGSLRLSCAASGSIFNFNYMGWFRQAPGKEREFVAAIRWSGSSTYYADSVKGRFTISRDDAKNTVALQMNSLKPEDTAIYYCALRKGIPYSTSDRVIKGVNDYDYWGQGTQVTVSSGGGGSGGGSGGGGSGGGSEVQLVESGGGLVQPGGSLRLSCIASGLPFSTKSMGWFRQAPGKEREFVARISPGGTSRYYGDFVKGRFAISRDNAKNTTWLQMNSLKAEDTAVYYCASGERSTYIGSNYYRTNEYDYWGTGTQVTVSS |  | 8 | 
P23IL119A3V16-9GS-ALB8-9GS-81A12V4 (bispecific antibody, part only; not given: anti-albumin Nanobody, part only) chain, part: EVQLLESGGGLVQPGGSLRLSCAASGRIFSLPASGNIFNLLTIAWYRQAPGKGRELVATINSGSRTYYADSVKGRFTISRDNSKKTLYLQMNSLRPEDTAVYYCQTSGSGSPNFWGQGTLVTVSSGGGGSGGGSGGGGSGGGSEVQLLESGGGLVQPGGSLRLSCAASGRTLSSYAMGWFRQAPGKGREFVSRISQGGTAIYYADSVKGRFTISRDNSKNTLYLQMNSLRPEDTAVYYCAKDPSPYYRGSAYLLSGSYDSWGQGTLVTVSS | 6.7 | 4.6 | IC50, splenocyte assay, 3.8 pM cIL-23 [3]: 5.4 pM; IC50, splenocyte assay, 19 pM hIL-23 [4]: 3.6 pM; IC50 [5]: 0.023 nM; IC50, BA/F3 proliferation assay, 76 pM hIL-23 [2]: 49 pM
P23IL-121A2-9GS-ALB1-9GS-119G7 (bispecific antibody, part only; not given: anti-albumin Nanobody, part only) chain, part: EVQLVESGGGLVQAGGSLRLSCAASGSIFNFNYMGWFRQAPGKEREFVAAIRWSGSSTYYADSVKGRFTISRDDAKNTVALQMNSLKPEDTAIYYCALRKGIPYSTSDRVIKGVNDYDYWGQGTQVTVSSGGGGSGGGSGGGGSGGGSEVQLVESGGGLVQAGGSLTLSCAVSGLTFNNYAMGWFRQVPGKEREFVAAISRSGLRTFYSDSVKGRFTISRDSAKSTVYVQMNNLKPEDTAVYFCAADRRTYYSEGPSLTDTLRYDYWGQGTQVTVSS |  | 39 | 
P23IL37D5-15GS-ALB1-15GS-20B11 (bispecific antibody, part only; not given: anti-albumin Nanobody and linkers, not shown: small tags and cut ends) chain, part: EVQLVESGGGLVQPGGSLRLSCAASGFTLDYLAIGWFRQAPGKEREGVSCVSSSGQYTYYADSVKGRFTISRDNAESTVYLQMNSLKPEDTAVYYCATDPECYRVRGYYNGEYDYWGQGTQVTVSSEVQLVESGGGLVQAGGSLRLSCAVSGDTFSVYGMGWFRQAPGMEREFVAGISWNAGITAYTDTLKGRFTISRDRAKNTMYLQMNSLQPEDTAVYYCAADVTRHYIATRSKVDASMYDYWGQGTQVTVSS | 5.75 | 5.77 | 
P23IL37D5-9GS-ALB1 (bispecific antibody, part only; not given: anti-albumin Nanobody, part only) chain, part: EVQLVESGGGLVQPGGSLRLSCAASGFTLDYLAIGWFRQAPGKEREGVSCVSSSGQYTYYADSVKGRFTISRDNAESTVYLQMNSLKPEDTAVYYCATDPECYRVRGYYNGEYDYWGQGTQVTVSSGGGGSGGGS | 419 | 29.8 | IC50 [5]: 0.037 nM; IC50, splenocyte assay, 19 pM native hIL-23 (Expt 3) [6]: 60 pM
P23IL119A3-9GS-ALB1-9GS-81A12 (bispecific antibody, part only; not given: anti-albumin Nanobody, part only) chain, part: EVQLVESGGGLVQAGGSLRLSCAASGRIFSLPASGNIFNLLTIAWHRQAPGMQRELVATINSGSRTNYADSVKGRFTISRDNAQKTVYLQMNNLKPEDTAVYYCQTSGSGSPNFWGQGTQVTVSSGGGGSGGGSGGGGSGGGSEVQLVESGGGLVQAGGSLRLSCAASGRTLSSYAMGWFRQAPGKEREFVARISQGGTAIYYADSVKGRFTISRDNAKNTVYLQMNSLKPEDTAVYYCAKDPSPYYRGSAYLLSGSYDSWGQGTQVTVSS | 3.3 | 2.5 | 
P23IL37D5-9GS-ALB1-9GS-20B11 (bispecific antibody, part only; not given: anti-albumin Nanobody, part only) chain, part: EVQLVESGGGLVQPGGSLRLSCAASGFTLDYLAIGWFRQAPGKEREGVSCVSSSGQYTYYADSVKGRFTISRDNAESTVYLQMNSLKPEDTAVYYCATDPECYRVRGYYNGEYDYWGQGTQVTVSSGGGGSGGGSGGGGSGGGSEVQLVESGGGLVQAGGSLRLSCAVSGDTFSVYGMGWFRQAPGMEREFVAGISWNAGITAYTDTLKGRFTISRDRAKNTMYLQMNSLQPEDTAVYYCAADVTRHYIATRSKVDASMYDYWGQGTQVTVSS |  |  | IC50, splenocyte assay, 19 pM native hIL-23 (Expt 3) [6]: 12 pM; IC50, BAF3 proliferation assay, 76 pM hIL-23 [2]: 19.5 pM

Reference: US20110053865A1
